B1: His-tagged DcNMCP2 (Daucus carota nuclear matrix constituent protein 2 with an N-terminal 6x His tag) (natural protein, UniProt D2YZU8 1-927, looked up)
chain: MASPRLTVIQSEKTTVTSSRVSRSSMSDDDIWKRLQEAGFDEDSIKRRDKASLIAYITKLEAEIYDHQYQMGLLIMERKEWGSKFERVEAALNSAELMRKHDKNLYLKDLAEAKKREENLKKAIEIERECLANIEKTLHELRAEYAETKVMADSKLVEARSMIEDALKKLSEADAKKHAAESLEAEASRYHSAAERKLHEVEAREDDLRRRATSFKTECDTKEEEILHERRLLNERQKALQQSQQRLVDGQDLLNKRESHIFERTQELNRKEKELEASKLKQEEELQALVEQQANLETKASSLSLREEVITKSELEVKKREEELCVLQEKLEKKESERIQQLLANYEASLSMKKSEFEAELEVKRKSVHDDIENKRRDWELREVDLHHREELILEKEHELEMQSRAVVDKERDLAGRFSLLEEKENRLHAVEKEIESKEALLQKEKEEIISSKLDIQRSLDALEDEKKQLHHAEEKMEAMKSETNELCVLESKLKEEIETIRAQKQELETEADEMKELKLKFEIEWQSIDEKRKELQKEAECINEQRESLELTLKDERNSLKLEKDAMRDEYMRNNESLSRDREDFMKKMEHERSEWFSKIQKERSDYLLAIEVQSKDLEDRLAKRREEIESYLAERERAFEEEKKKELMRMDTLRETLARETEQVNAELNRLDTERREINLDRERRDREWAELNTLIEELKVQRQKLEKQRELMRADKEEILVQIEHLKQLEDLKVVPDRIALTDIQQSDLQPSKRVSARRSLKRQSGLDSGCRAEDNGNASSGNGSVILSPPLSSPFSWLKRCASSLLEQKVSNKKMRHSEEIITPSTIPARLNAPDDEHAVISANQQTPVHAKETTVYIDKIITIREVTSFNDAIVDGNNQNLEEALSQRAEEKLEDDNNIESEKLEKNGEVDPKIMQASLTEQ
notes: Nuclear matrix constituent protein 2 (NMCP2) of Daucus carota; longest ORF of cDNA clone pD2m, amplified from the start codon to the stop codon; the PCR product included a 2808 bp ORF; GenBank AB514509; also called 6x His-tagged DcNMCP2; product of pDC2mN; not shown: His6, N-terminal, kept

What was measured:
[1] = biological target: His-tagged DcNMCP1 (Daucus carota nuclear matrix constituent protein 1 with an N-terminal 6x His tag) (Daucus carota); test: transmission electron microscopy after low-angle rotary metal shadowing; purified protein in urea dialysed against H2O (30-120 min) to induce refolding; sprayed in 40% glycerol on mica, platinum-carbon shadowing; monomers to coiled-coil dimer
[2] = biological target: the molecule itself; test: as above

Molecule	stoichiometry N [1]	stoichiometry N [2]
His-tagged DcNMCP1 (Daucus carota nuclear matrix constituent protein 1 with an N-terminal 6x His tag) (from UniProt A0A166B1A6 1-1119) (natural protein)	2	–
B1	–	2

Reference: article PMC8483785, “The plant nuclear lamina proteins NMCP1 and NMCP2 form a filamentous network with lateral filament associations” (Journal of Experimental Botany, 2021)
